The test system of data set [1] is Pra1. Kind of data set: Inhibition of proteolytic activity of Pra1 by specific inhibitors. Format: biochemical, T. harzianum. As to conditions: 1 mM inhibitor, preincubation 30 minutes at 30° C., pH 7.5. As to the method:
In order to determine the catalytic type to which Pra1 belongs, specific inhibitors were used of the different known catalytic mechanisms. The effect of said inhibitors on the activity of Pra1 was analysed by preincubating the enzymatic solution for 30 minutes at 30° C. in 100 mM phosphate buffer pH 7.5 with said specific inhibitors of different known catalytic mechanisms:
1 mM PMSF (100 mM initial solution in isopropanol),
1 mM EDTA (100 mM initial solution in water),
0.1 mM Pepstatin (10 mM initial solution in DMSO),
1 mM Iodoacetamide (100 mM initial solution in water, prepared at the time of use).
In parallel to the enzymatic assay, controls were also performed in the presence of organic solvent in which the inhibitor was dissolved. The residual activity was determined by the percentage of activity in absence of inhibitor.

Data set [2] can be described thus: Endopeptidase activity on synthetic peptide substrate for trypsins. As to conditions: optimum conditions of activity (30° C. and pH 7.5); 1 U = 1 nmol p-NA per minute. It counts as biochemical. How it is done: (§1) Taking into account the information obtained in Example 3.2, the endopeptidase activity of Pra1 on 3 synthetic peptides (Sigma) is assayed with the amino and carboxyl terminals blocked, with allows the different types of activities to be differentiated within the S1 family of peptidases:
N-acetyl-Ile-Glu-Ala-Arg-pNA (Arg-pNA) for trypsins,
(§2) The enzymatic solution (75 ng) was prepared in 90 μl of 100 mM sodium phosphate buffer and preincubated for 5 minutes at 30° C. The reactions were initiated by addition of 10 μl of preheated 10 mM substrate solution (prepared from 100 mM solutions in DMSO stored at −20° C.). After 20 minutes of incubation, the reactions were stopped by addition of 50 μl of 2% (v/v) acetic acid. Then, the absorbance of 100 μl at 405 nm was measured in microtitre plates with 96 wells (Inmunoplate Maxisorp, NUNC) using a Titertek Multiskan Plus 311 A0 (Flow Laboratories) automatic reader, and the nmoles of p-nitroaniline (p-NA) released per minute were calculated. In parallel, enzyme blanks with no substrate and substrate without enzyme were also processed. The standard calibration line was constructed with solutions of para-nitroanaline (p-NA) (Sigma) at known concentrations (0-1.25 mM) prepared from an initial 5 mM solution. This solution was prepared by dissolving p-NA beforehand in a minimum volume of ethanol.

A short description of data set [3]: Endopeptidase activity on synthetic peptide substrate for elastases. It counts as biochemical. To be noted: 1 mM substrate, 30° C., 20 minutes. How it is done: as §1
N-succinyl-Ala-Ala-Pro-Leu-pNA (Leu-pNA) for elastases, and
as §2

A short description of data set [4]: Endopeptidase activity on synthetic peptide substrate for chymotrypsins/subtilisins. Format: biochemical. To be noted: 1 mM substrate, 30° C., 20 minutes. How it is done:
as §1
N-succinyl-Ala-Ala-Pro-Phe-pNA (Phe-pNA) for chymotrypsins/subtilisins (this latter belongs to the S8 family).
as §2, with “This solution was prepared by dissolving p-NA beforehand in a minimum volume of ethanol.” left out

The nature of data set [5]: Determination of kinetic parameters Km, Kcat, Kcat/Km (Lineweaver-Burk). Format: biochemical. To be noted: Arg-pNA 0.05-2 mM, 30° C., pH 7.5. How it is done: The determination of the kinetic parameters Km, Kcat, and Kcat/Km was performed from the initial rates calculated in assays with different concentrations of substrate (0.05-2 mM). For this, the substrate was prepared in 0.99 ml of 100 mM sodium phosphate buffer pH 7.5 and preincubated at 30° C. Then the reaction was started by the addition of 10 μl of the purified proteases Pra1 (2.5 ppm) preheated to the same temperature. The activity was monitored for 10 minutes in a Shimadzu UV-160A spectrophotometer at 405 nm kept at 30 ? C by a thermostatA unit of activity represented the release of one 1 nmol of p-NA per minute in the assay conditions. Solutions of enzymes without substrate, and substrate without enzyme were prepared as blanks. The standard calibration curve was constructed with solutions of p-NA (Sigma) at known concentrations (0-200 μM), prepared as indicated above. The kinetic parameters were calculated from representations of double reciprocals or by Lineweaver-Burk (1/V vs 1/S).

Data set [6] is described as follows: Effect of temperature on the activity of Pra1. Format: biochemical. How it is done: In order to determine the optimum temperature for activity of Pra1, the enzymatic assay was performed over a range of temperatures comprised between 30° C. and 85° C. The effect of temperature on the stability of Pra1 was determined by preincubating the enzymatic solution in 100 mM sodium phosphate buffer pH 7.5 for 20 minutes at different temperatures (30-85° C.). The substrate used in these assays was the synthetic peptide N-acetyl-Ile-Glu-Ala-Arg-pNA, specific for trypsins.

Data set [7] is described as follows: Effect of pH on the activity of Pra1. It counts as biochemical. As to the method:
(§3) For the determination of the optimum pH for activity of Pra1, the assay was carried out in the following buffer systems: 100 mM sodium acetate (pH 3-5.5), 100 mM sodium phosphate (pH 6-7), and 100 mM Tris/HCl (pH 7.5-9). The effect of pH on the stability of Pra1 was determined by pre-incubating the enzymatic solution (750 ng) for 24 hours at 4° C. in […] of the aforementioned buffers. Then, aliquots of 10 μl were taken for performing the assay in standard conditions.

The format of data set [8] is physicochemical. As to conditions: preincubation 24 hours at 4° C. As to the method:
as §3
The activity decreased as the pH of preincubation increased, with a reduction of 40% at pH 7.

Data set [9] can be described thus: Isoelectric point by chromatofocussing. Format: physicochemical. As to conditions: observed. How it is done: The purification of enzymes with proteolytic activity obtained from the protocol described in Example 1 was performed from the culture filtrate of T. harzianum CECT 2413 kept for 48 hours in a MM medium with cell walls of C. acutatum as the carbon source. To do this, 2 ml of filtrate dialysed and concentrated 75 times were submitted to chromatofocussing to separate proteins on the basis of their isoelectric point. The elution profiles obtained show two peaks of proteolytic activity on azocasein, one eluted at basic pH, coinciding with the main protein peak, and another at acid pH.

Entries after “also recorded” stand apart in the source; their conditions may differ.

This note sets out measurements from patent US20040115188A1, “Enzyme with proteolytic activity” (priority 2000, published 2004).

As for `O=S(=O)(F)Cc1ccccc1` [PMSF], in data set [1], the “effect on the lytic activity of Pra1” value is “drastically inhibited”.

As to `NC(=O)CI` [iodoacetamide, Iodoacetamide], the “effect on the lytic activity of Pra1” value in [1] is “weak effect”.

B1: Pra1: enzyme derived from T. harzianum with proteolytic activity, trypsin type serine-endopeptidase, amino acid sequence SEQ. ID. NO.: 1 (protein, listed as Trichoderma harzianum)
chain: MAPVLAIASVLAALPALTMGAAITPRGSDIVGGTTAALGEFPYIVSLSTGGSHFCGGVLIDSRTVVTAGHCTIDQRASSVKVRAGTLTWASGGTQVGVSSLTLHPSYTVDSQGVPDNDVGVWHLATAIPTSSTIGYATLPASGSDPAAGTTLTVAGWGTTSENSNSLPSTLRKVSVPVVARATCDSDYDGEISNNMFCAAVAAGGKDSCSGDSGGPIIDPSGTLVGVVSWGQGCAERGFPGVYTRLGNYVSFINSNRG
As for B1, the “specific activity on Arg-pNA” value in data set [2] was 94,800 U/mg. Also, the “lytic activity on Leu-pNA (elastase activity)” value in data set [3] is “No lytic activity; also recorded: does not have activity”. Further, the “lytic activity on Phe-pNA (chymotrypsin/subtilisin activity)” value in [4] is “No lytic activity; also recorded: does not have activity”. In addition, in data set [5], the Kcat was 39.64 s⁻¹ and the Km amounted to 220 µM. The “activity at 30° C.” value in [6] (30° C.) came out at 95%. Also, the “activity at 45° C.” value in [6] (45° C.) is reported as 16%. For the same molecule, the “activity above 55° C.” value in data set [6] (above 55° C.) was “no activity was detected”. In addition, the “optimum temperature for activity” value in data set [6] (pH 7.5) was roughly 35 °C. Also, in data set [7], the “optimum pH for activity” value came to 7.5. Also, the “activity in buffers with pH greater than 8.5 or less than 6.5” value in data set [7] (pH greater than 8.5 or less than 6.5) is recorded as “decreased rapidly”. Also, in data set [8] (pH 7), the “reduction of activity after preincubation at pH 7” value worked out at 40%. Besides, in [8] (pH 9), the “proteolytic activity after preincubation at pH 9” value is recorded as “No proteolytic activity was detected”. In data set [9], the “isoelectric point (Ip)” value was 4.7-4.9.

As a reminder, the Km is the concentration of substrate that gives half-maximal velocity.
